# Test results as given in PMC4256367.
# Target: hTau40 (Tau, 2N4R) 1-441 (UniProt P10636)
# Experiment: fluorescence lifetime (TCSPC) over time
# [1] = reference: unlabelled P0-Tau (E. coli), sites S202,T205,T212,S214,T231,S235,S262,S356,S396,S404,Y310,S324,T153
other: final average lifetime [1],also measured,Substance
–,"other: final average lifetime (reference: P12-Tau untreated, sites S202,T205,T212,S214,T231,S235,S262,S356,S396,S404): weaker; reference 0.6","hTau40 (Tau, 2N4R) 1-441 (from UniProt P10636-8) P12-Tau incubated with alkaline phosphatase (P4-Tau)"
–,"other: final average lifetime (reference: P12-Tau (Sf9, no okadaic acid)): stronger; reference 0.6","hTau40 (Tau, 2N4R) 1-441 (from UniProt P10636-8) P20-Tau (Sf9 cells treated with okadaic acid)"
stronger; reference 3.8,–,"hTau40 (Tau, 2N4R) 1-441 (from UniProt P10636-8) unlabelled P12-Tau (Sf9)"
stronger; reference 3.8,–,"hTau40 (Tau, 2N4R) 1-441 (from UniProt P10636-8) unlabelled P20-Tau (Sf9 + okadaic acid)"
